According to paper PMC8608799, “The main oxidative inactivation pathway of the plant hormone auxin” (Nature Communications, 2021):

Key:
Assay type in all cases: biochemical, Arabidopsis thaliana
Details in all cases: 1 mM MnCl2, 0.5 mM dithiothreitol, 50 mM Tris-HCl pH 7.4, 32 °C
[1] = tested on: O=C(O)CC[C@H](NC(=O)CC1C(=O)Nc2ccccc21)C(=O)O; test: HPLC of hydrolysis product, Lineweaver-Burk
[2] = tested on: O=C(O)C[C@H](NC(=O)Cc1c[nH]c2ccccc12)C(=O)O; test: HPLC of hydrolysis product, kinetics
[3] = tested on: O=C(O)CC[C@H](NC(=O)Cc1c[nH]c2ccccc12)C(=O)O; test: HPLC of hydrolysis product, kinetics
[4] = tested on: O=C(O)C[C@H](NC(=O)CC1C(=O)Nc2ccccc21)C(=O)O; test: HPLC of hydrolysis product, kinetics

Sequence of GST-ILR1 (Arabidopsis thaliana) (chain, as listed by the source): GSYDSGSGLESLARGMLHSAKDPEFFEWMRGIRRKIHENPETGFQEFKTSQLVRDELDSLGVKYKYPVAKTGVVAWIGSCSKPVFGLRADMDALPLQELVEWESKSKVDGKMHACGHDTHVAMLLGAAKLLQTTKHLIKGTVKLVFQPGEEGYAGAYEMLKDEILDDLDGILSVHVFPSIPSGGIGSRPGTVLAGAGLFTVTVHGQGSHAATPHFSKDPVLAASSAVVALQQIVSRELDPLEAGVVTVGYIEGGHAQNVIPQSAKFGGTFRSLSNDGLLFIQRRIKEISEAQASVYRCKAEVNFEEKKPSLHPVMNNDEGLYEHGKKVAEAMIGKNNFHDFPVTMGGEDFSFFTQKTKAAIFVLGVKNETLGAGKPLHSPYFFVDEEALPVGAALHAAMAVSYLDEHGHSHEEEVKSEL

GST-ILR1 (Arabidopsis thaliana)
Km [1]: 2.71 ± 0.34 µM | kcat [1]: 0.0089 s⁻¹ | Km [2]: 340.087 ± 41.4597 µM | kcat [2]: 0.0025 s⁻¹ | Km [3]: 59.9723 ± 7.5726 µM | kcat [3]: 0.021 s⁻¹ | Km [4]: 130.125 ± 25.3236 µM | kcat [4]: 0.0036 s⁻¹
